Target: Legionella pneumophila RalF Sec7 domain (LpRalF^Sec7, residues 1-201) (Legionella pneumophila, UniProt Q8RT31 1-201)
Assay: SEC
Conditions: both partners purified

B1: Human Arf1 lacking its N-terminal alpha-helix (Δ17Arf1) (domain or fragment)
chain: not shown
notes: also called Arf1-GDP; nucleotide-free Arf1
binding result: binds

From publication PMC3828167 (PLoS Pathogens, 2013)
